From publication PMC6323120

Target: T1, TNFR1, P19438
T1 chain: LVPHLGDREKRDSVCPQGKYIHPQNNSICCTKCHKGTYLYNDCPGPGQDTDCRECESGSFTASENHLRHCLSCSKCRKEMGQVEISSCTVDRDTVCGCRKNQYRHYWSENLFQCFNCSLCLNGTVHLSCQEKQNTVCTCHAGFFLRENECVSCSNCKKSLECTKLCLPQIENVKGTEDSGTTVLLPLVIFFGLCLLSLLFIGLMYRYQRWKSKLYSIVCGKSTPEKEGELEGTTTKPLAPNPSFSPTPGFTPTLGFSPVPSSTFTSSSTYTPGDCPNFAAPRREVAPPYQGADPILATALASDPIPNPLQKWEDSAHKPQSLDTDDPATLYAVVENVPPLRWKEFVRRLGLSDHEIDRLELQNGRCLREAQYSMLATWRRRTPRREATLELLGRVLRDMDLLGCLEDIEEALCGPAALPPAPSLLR
Test: quantitative single-molecule localization microscopy (dSTORM/PALM); TNFR1 in the plasma membrane at physiological cell surface expression levels, upon TNF binding
Details: remark: other sources report otherwise

B1: TNFR1, P19438 30-455 (receptor)
chain: T1 chain
Binder B1 has a stoichiometry N of over 3.
